The source of these data is a protein production outcome set (Wang et al. 2014).

This series can be described thus: label from the status in PepcDB records.
Regarding “MTVNAKTSPSAGNTWRDLPAAQQPEYPDTEALRAVIADLESYPPLVFAGECDQLRARMAAVAKGEAFLLQGGDCAEAFDAVSADHIRNKLKTLLQMGAVLTYAASVPVVKVGRIAGQYSKPRSKPTETRDGVTLPTYRGDSVNGFDFTEAARIPDPERLKRMYHASASTLNLVRAFTTGGYADLRQVHAWNQDFVKSSPSGQRYEQLAREIDNALNFMRACGTDPAEFQTVEFFSSHEALLLDYESALTRVDSRTGQLYDVSGHMVWIGERTRQLDHAHIEFASRIRNPIGIKLGPSTTAEEALQYIERLDPEREPGRLTFIVRMGADKIRDKLPELVEKVTASGATVAWITDPMHGNTYEAASGHKTRRFDDVLDEVKGFFEVHKSLGTHPGGIHVELTGDDVTECVGGGDEIFVDDLHQRYETACDPRLNRSQSLDLAFLVAEMYRDQ”, the protein production result is “not failed”.
As to “MTVNMTKGQAISLQKNDGGTLTAVRMGLGWQAAPRRGLFGSRTREIDLDASAVLFADKQPVDVVFFRHLVSDDGSVRHTGDNLVGGVGQGGDDEAILVDLQRLPVHIDQIVFTVNSFTGQTFQEVQNAFCRLVDETNGEELARYTLAGGGQYTAQIMAKVHRAGAGWQMTALGTPSNGRTFQDLMPAILPHL”, the protein production entry is recorded as “failed”.
For “MTVPWHLVALAFAVCLVVAAPGFLRVYYFVSLCYAGAIAAQSLVFALLFSTTISGWVTLQLLLLLIYGVRLGAFLAVRERNPAYAAELARAERRTAELKLWHQIAIWLGVSLLFTLLFLPALLTLSLQAQGAWPVSTPLGVMIMAVGLWVESLADWQKYRYKAEHPSHYCDTGLYRLVRCPNYLGEMVFWFGVWFSGLSAYGSGGAWTLTLLGMLYILALMTAAAAGLERKQDERYGDRPDYQEYVRSVPILFPWVPLFTLRKLLIRFR”, the protein production result is given as “failed”.
On to “MTVTAPNALNFECETGNYHTFCPISCVAWLYQKIEDSFFLVIGTKTCGYFLQNAMGVMIFAEPRYAMAELEEGDISAQLNDYEELKRLCLEIKRDRNPSVIVWIGTCTTEIIKMDLEGLAPKLEAEIGIPIVVARANGLDYAFTQGEDTVLAAMAARCPTSTAISDPEERNPIQRLLNFGKKKEEVQAQSSQYHPHPPLVLFGSLPDPVVTQLTLELKKQGIKVSGWLPAKRYTELPVIDEGYYVAGVNPFLSRTATTLIRRRKCQLITAPFPIGPDGTRTWIEQICATFGIQPQGLAEREAETWQKLSDYLELVRGKSVFFMGDNLLEISLARFLIRCGMRVLEIGIPYMDKRYQAAELALLSQTCAEMGHPLPTIVEKPDNYNQLQRIKALQPDLVITGMAHANPLEARGISTKWSVEFTFAQIHGFGNARDILELVTRPLRRNQALAGLGWQKLVAHLEHHHHHH”, for which the protein production result is recorded as “failed”.
For “MTVTLKNDYLTVQINEKGAELSSVKANDGIEYIWQADPAVWGRHAPVLFPFVGRLKDDQFQVEDQTYPMGQHGFARDMDFEAVEQDDQHVIMELNSDTETLQKFPFEFKLRLHFTLKDHELIEHYEVVNPDSKKDLLFSIGGHPGFNLNLGDNQIQMEDTHIRIAPKQVYNQIPLKAPYTDPKNPIKFDATTPLDLTHALFKDDAIILDLKGEQITLMTENEVNNHGIAFTVANAPYLGIWSPYPATANFVCLEPWWGIADTVNFNGELKDKLGVNRLAAQETFNQEFSMSFF” the value was “failed”; for “MTVVVEFLGTGGAHSEDLGSSSARISLPNSQNMLIDFGPDTYFSVNTRKLQFDAIFITHAHLDHVGGLERLFFSVAFKKQRLIKLYVPVSLVTRLHQIFGMAGSQVAEGGKNFWDCFQLIPITDYFYFSGYRFNVFPVRHHFPGEAFGLALPGCFVYTGDTRPIPEQLVAHAGRGELIFHDATTSSNPAHSALDDLKREYALHDVLDRLVLYHFDSAVERELAETQGWKTVRLGVTYQFGCRHVCSGSMCSNAELSSLGTNKALHNERGTKLPRPSIKKDEFV”, “failed”; for “MTYGEAYLEGWKNIFNYEGVSNRFEFWSFMIGSGVICLLPLLCWWLAVTINNDYGVFIFFALPVSFILTLIFAVPAIALAVRRMHDIGYSGWWVTIAVLIPVTGVILLILCCLPSKSQDQA”, “failed”.
For “MTYNVTALVGNAGNQDTSGVRVDFVDNGVRVGSYTIPLLRSGETTTVVFNWTPMTVGSHTLQLIIDPENHIQETNETNNRIIL” the value was “failed”.
